From publication PMC8218332 (Cell, 2021) come the findings set out here.

As usually defined, the Kd is the equilibrium constant for the complex coming apart.

B1: mAb 88 (antibody, V domains shown)
VH: QLQLQESGPGLVKPSQTLSLTCTVSGGSISSGSYNWTWIRQPAGKGLEWIGRIYNSGSTNYNPSLKSRVTISVDTSKNQLSLKVRSVTAADTAVYYCARHCSGGTCYPKYYYGMDVWGQGTTVTVSS
VL: QSALTQPPSVSEAPRQRVTISCSGSSSNIGNNAVNWYQQFPGKAPKLLIYYDDLLPSGVSDRFSGSKSGTSASLAISGVQSEDEADYYCAAWDDSLNVVVFGGGTKLTVL
notes: copies: 2 + 2
B2: mAb 316 (antibody, V domains shown)
VH: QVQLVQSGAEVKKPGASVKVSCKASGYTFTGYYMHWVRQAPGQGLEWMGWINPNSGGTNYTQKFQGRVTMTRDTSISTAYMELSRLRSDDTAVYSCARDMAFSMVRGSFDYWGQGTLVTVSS
VL: QAVLTQPPSASGSPGQSVTISCTGTSSDVGGYNYVSWYQQHPGKAPKLMIYEVSKRPSGVPDRFSGSKSGNTASLTVSGLQAEDEADYYCSSYAGSNHWVFGGGTKLTVL
notes: copies: 2 + 2
B3: mAb 278 (antibody, V domains shown)
VH: QVQLVQSGAEVKKPGASVKVSCKASGYIFIRYGISWVRQAPGQGLEWMGWISANNGYTNYAQKLQGRVTMTTDTSTSTAYMELRSLRSDDTAVYYCARDGGILTGYLDYFDHWGQGTLVTVSS
VL: DIQMTQSPSSLSASVGDRLTITCRASQSIASYLNWYQQKPGKAPKLLIYAASSLQSGVPSRFSGSGSGTDFTLTISSLQPEDFATYHCQQSYSTLGITFGPGTKVDIK
notes: copies: 2 + 2
B4: mAb 222 (antibody, V domains shown)
VH: EVQLVESGGGLIQPGGSLRLSCAASGLTVSSNYMSWVRQAPGKGLEWVSVIYSGGSTFYADSVKGRFTISRDNSKNTLYLQMNSLGAEDTAVYYCARGEGSPGNWFDPWGQGTLVTVSS
VL: DVVMTQSPGTLSLSPGERATLSCRASQSVPSSYLAWYQQKPGQAPRLLIYGASTRATGIPDRFSGSGSGTDFTLTISRLEPEDFAVYYCQHYDTSPRFGGGTKVDIK
notes: copies: 2 + 2
B5: REGN10987 (antibody, V domains shown)
VH: QVQLVESGGGVVQPGRSLRLSCAASGFTFSNYAMYWVRQAPGKGLEWVAVISYDGSNKYYADSVKGRFTISRDNSKNTLYLQMNSLRTEDTAVYYCASGSDYGDYLLVYWGQGTLVTVSS
VL: QSALTQPASVSGSPGQSITISCTGTSSDVGGYNYVSWYQQHPGKAPKLMIYDVSKRPSGVSNRFSGSKSGNTASLTISGLQSEDEADYYCNSLTSISTWVFGGGTKLTVL
notes: source: provided by AstraZeneca; copies: 2 + 2
B6: mAb 384 (antibody, V domains shown)
VH: EVQLVESGGGLVKPGESLRLSCAASGFTFSDYYMTWIRQAPGKGLEWVSYIRSSGHTIYYADSVKGRFTISRDNAKNSLYLQMNSLRVEDTAVYYCARGGVLRFLEWPLNAFDIWGQGTMVTVSS
VL: DIQLTQSPSSLSASVGDRVTITCRASQGISNYLAWYQQKPGKVPKLLIYAASTLQSGVPSRFSGSGSGTDFTLTISSLQPEDVATYYCQKYNNALGTFGQGTKVEIK
notes: copies: 2 + 2

The target in the assay is His-tagged SARS-CoV-2 RBD (Victoria RBD) (SARS-CoV-2, Victoria/Wuhan-Hu-1 (same …, UniProt P0DTC2)). Description: BLI. As to conditions: both partners purified.
On to B1, for which binding was characterised by a dissociation constant (Kd) of 4.4 nM.

Molecule B2 displayed a Kd of 0.38 nM. With B3 the figure was 1.6 nM; with B4, 0.25 nM; with B5, 0.38 nM.

Turning to B6, the Kd is 0.65 nM. This Kd is about 1.7-fold higher than that of the molecule before.
